Laboratory results as given in publication PMC8443799, “Structural characterization of KKT4, an unconventional microtubule-binding kinetochore protein”.

T1: KKT4 full-length (KKT4 2-645) (Trypanosoma brucei, UniProt Q580Y8 2-645)
T1 sequence: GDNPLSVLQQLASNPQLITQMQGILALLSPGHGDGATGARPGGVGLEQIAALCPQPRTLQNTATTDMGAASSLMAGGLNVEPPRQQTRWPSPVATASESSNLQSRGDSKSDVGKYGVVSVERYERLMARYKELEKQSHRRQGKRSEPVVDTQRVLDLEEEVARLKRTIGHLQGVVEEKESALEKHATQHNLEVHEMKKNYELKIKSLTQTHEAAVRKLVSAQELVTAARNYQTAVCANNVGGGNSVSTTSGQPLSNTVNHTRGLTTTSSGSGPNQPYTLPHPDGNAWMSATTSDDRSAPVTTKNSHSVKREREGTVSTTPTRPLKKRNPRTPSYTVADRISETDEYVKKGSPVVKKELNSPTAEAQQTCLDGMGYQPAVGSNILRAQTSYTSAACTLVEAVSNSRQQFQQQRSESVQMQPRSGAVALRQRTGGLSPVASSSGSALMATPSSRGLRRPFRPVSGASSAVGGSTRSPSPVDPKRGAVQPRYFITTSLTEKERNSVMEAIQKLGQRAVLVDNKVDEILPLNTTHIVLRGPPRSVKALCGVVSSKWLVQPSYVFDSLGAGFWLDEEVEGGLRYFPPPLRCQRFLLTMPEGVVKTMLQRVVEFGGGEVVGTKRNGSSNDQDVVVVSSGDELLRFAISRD

B1: BA3098 50-bp CIR147 DNA probe (dsDNA)
DNA 1: CAATATGTAAGGTGTTTTGGTGTAAAACACGCATTCTTGCATAACATGCA
DNA 2: TGCATGTTATGCAAGAATGCGTGTTTTACACCAAAACACCTTACATATTG

Molecular target: T1, KKT4 full-length (KKT4 2-645)
Experiment: fluorescence anisotropy; 1 nM DNA; 25 mM HEPES pH 7.5, 50 mM NaCl, 0.5 mM TCEP, 1 nM DNA, 30 min at room temperature
Conditions: protein: recombinant; tags: SNAP-6HIS-3FLAG (pBA925; from Sf9); chain copies: 2; label: 5' 6-FAM; blunt (only one strand printed; 50-bp dsDNA)

B1 showed a Kd of 0.011 µM.

Molecular target: SNAP-6HIS-3FLAG-KKT4 (full-length T. brucei KKT4) (Trypanosoma brucei)
Experiment: SEC-MALS; full-length SNAP-6HIS-3FLAG-KKT4 at lower concentrations; 25 mM HEPES pH 7.5, 340 mM NaCl, 0.5 mM TCEP
Conditions: not given

“SNAP-6HIS-3FLAG-KKT4 (full-length T. brucei KKT4) (natural protein)” was tested, and the stoichiometry N was 2.

Molecular target: Taxol-stabilised microtubules (porcine brain tubulin) (UniProt P02550)
Sequence (P02550 whole entry, looked up): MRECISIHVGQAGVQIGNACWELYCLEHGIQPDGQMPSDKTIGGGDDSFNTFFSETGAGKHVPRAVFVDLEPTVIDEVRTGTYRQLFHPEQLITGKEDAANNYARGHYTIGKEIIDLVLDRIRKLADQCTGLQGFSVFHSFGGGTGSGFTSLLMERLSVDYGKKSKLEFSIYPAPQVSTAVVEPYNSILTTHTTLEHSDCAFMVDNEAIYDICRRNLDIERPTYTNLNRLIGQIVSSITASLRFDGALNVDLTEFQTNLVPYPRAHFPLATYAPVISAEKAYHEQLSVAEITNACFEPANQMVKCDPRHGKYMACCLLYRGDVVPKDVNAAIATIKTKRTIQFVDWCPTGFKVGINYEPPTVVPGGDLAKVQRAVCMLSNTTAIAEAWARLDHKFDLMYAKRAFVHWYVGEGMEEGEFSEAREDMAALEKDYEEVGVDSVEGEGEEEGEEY
Experiment: microtubule co-sedimentation assay
Conditions: parent: est. 0.90; read off a plot

Compared with “KKT4^115–343 (microtubule-binding domain) K115E”, “KKT4^115–343 (microtubule-binding domain) K199E” is higher in other: fraction bound: 0.67 for the first, 0.78 for the second.

Going from “KKT4^115–343 (microtubule-binding domain) R167D” to “KKT4^115–343 (microtubule-binding domain) K204E”, the other: fraction bound rises from 0.74 to 0.84.

Going from “KKT4^115–343 (microtubule-binding domain) R130D” to “KKT4^115–343 (microtubule-binding domain) K179E”, the other: fraction bound rises from 0.6 to 0.77.

First: KKT4^115–343 (microtubule-binding domain) R123E
Second: KKT4^115–343 (microtubule-binding domain) K136E
The other: fraction bound of the first is lower: 0.23 for the first, 0.43 for the second.

Compared with “KKT4^115–343 (microtubule-binding domain) K132E”, “KKT4^115–343 (microtubule-binding domain) R126D” is lower in other: fraction bound: 0.6 for the first, 0.46 for the second.

First: KKT4^115–343 (microtubule-binding domain) R140D
Second: KKT4^115–343 (microtubule-binding domain) K218E
The other: fraction bound of the first is lower: 0.48 for the first, 0.89 for the second.

First: KKT4^115–343 (microtubule-binding domain) K154E
Second: KKT4^115–343 (microtubule-binding domain) R230D
The other: fraction bound of the first is higher: 0.63 for the first, 0.6 for the second.

First: KKT4^115–343 (microtubule-binding domain) R145D
Second: KKT4^115–343 (microtubule-binding domain) K206E
The other: fraction bound of the first is lower: 0.55 for the first, 0.85 for the second.

Compared with “KKT4^115–343 (microtubule-binding domain) R141D”, “KKT4^115–343 (microtubule-binding domain) K166E” is higher in other: fraction bound: 0.43 for the first, 0.85 for the second.

Going from “KKT4^115–343 (microtubule-binding domain) R217D” to “KKT4^115–343 (microtubule-binding domain) R164D”, the other: fraction bound falls from 0.77 to 0.73.

Going from “KKT4^115–343 (microtubule-binding domain) K144E” to “KKT4^115–343 (microtubule-binding domain) K198E”, the other: fraction bound rises from 0.44 to 0.8.

Molecular target: KKT4^2–114 (Trypanosoma brucei)
Experiment: SEC-MALS; KKT4 2-114 at higher concentrations; 25 mM HEPES pH 7.5, 150 mM NaCl, 0.5 mM TCEP
Conditions: not given

KKT4^2–114 (domain or fragment) gave a stoichiometry N of 4.

Molecular target: Synthetic KKT8 phosphopeptide (BA_peptide_2 (DBS1831-1)) (T. brucei)
Experiment: fluorescence polarisation; fluorescence anisotropy; KKT4 463-645 (from 170 μM, serially diluted 2:3) with 100 nM 5-FAM peptide probe; 25 mM HEPES pH 7.5, 50 mM NaCl, 0.5 mM TCEP; 30 min at room temperature
Conditions: not given

With KKT4^463–645 K543A (domain or fragment) the fold decrease of binding affinity against wild-type KKT4 BRCT was 10 fold.

Molecule “KKT4^463–645 (KKT4 BRCT domain) (domain or fragment)” has a Kd of 30 µM.

Molecular target: KKT4^2–114 (Trypanosoma brucei)
Experiment: SEC-MALS; KKT4 2-114 at lower concentrations; 25 mM HEPES pH 7.5, 150 mM NaCl, 0.5 mM TCEP
Conditions: not given

KKT4^2–114 (domain or fragment) gave a stoichiometry N of 3.

Molecular target: KKT4^101–352 (Trypanosoma brucei)
Experiment: SEC-MALS; KKT4 fragments; 25 mM HEPES pH 7.5, 150 mM NaCl, 0.5 mM TCEP
Conditions: not given

For KKT4^101–352 (domain or fragment), the stoichiometry N was 2.

Molecular target: SNAP-6HIS-3FLAG-KKT4 (full-length T. brucei KKT4) (Trypanosoma brucei)
Experiment: SEC-MALS; full-length SNAP-6HIS-3FLAG-KKT4 at higher concentrations; 25 mM HEPES pH 7.5, 340 mM NaCl, 0.5 mM TCEP; Superose 6 or Superdex 200 10/300
Conditions: not given

“SNAP-6HIS-3FLAG-KKT4 (full-length T. brucei KKT4) (natural protein)” was tested, and the stoichiometry N was 4.
